The numbers were not newly measured in paper PMC3008546, which cites them from elsewhere.

The data set addresses DNA ligase IV BRCT (Homo sapiens) (UniProt P49917).

XRCC4, sequence (Q13426 266-336): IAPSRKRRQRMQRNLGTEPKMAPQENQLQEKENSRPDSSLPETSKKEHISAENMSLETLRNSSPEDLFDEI
DNA ligase IV BRCT (Homo sapiens), sequence (P49917 654-911): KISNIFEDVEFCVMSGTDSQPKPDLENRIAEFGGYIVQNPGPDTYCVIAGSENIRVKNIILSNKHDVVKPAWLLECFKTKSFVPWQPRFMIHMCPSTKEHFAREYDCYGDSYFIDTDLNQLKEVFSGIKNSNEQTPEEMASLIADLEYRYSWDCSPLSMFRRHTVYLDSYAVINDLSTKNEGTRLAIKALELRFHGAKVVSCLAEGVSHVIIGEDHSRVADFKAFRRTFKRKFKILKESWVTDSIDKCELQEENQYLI

For orientation: Kd means a measure of binding affinity in units of concentration. With XRCC4 (from UniProt Q13426), the Kd was 1 nM.
